{
  "source": "patent US10883090B2",
  "about": "“P-coumaroyl-CoA:monolignol transferases” (WISCONSIN ALUMNI RESEARCH FOUNDATION, priority 2017, dated 2021)",
  "key": {"[1]": {"assay": "Activity screening of cell-free translated PMT enzymes with p-coumaroyl-CoA and monolignol mixture (LC-MS)", "assay_type": "biochemical", "conditions": "fed monolignols (H, G, S) and p-coumaroyl-CoA; FIGS. 3A, 4A, 9", "protocol": "The active enzymes were produced using a wheat germ cell-free translation bilayer method previously reported (Makino, S., Beebe, E. T., Markley, J. L. and Fox, B. G. (2014) Cell-free protein synthesis for functional and structural studies. Methods in Molecular Biology, 1091, 161-178). Briefly, a translation reaction mixture consisting of 60 OD wheat germ extract (CellFree Sciences, Matsuyama, Japan), 0.04 mg/mL creatine kinase, 0.3 mM each amino acid, 12.6 mM HEPES-KOH, pH 7.8, 52.6 mM potassium acetate, 1.3 mM magnesium acetate, 0.2 mM spermidine HCl, 2.1 mM DTT, 0.6 mM ATP, 0.13 mM GTP, 8.4 mM creatine phosphate, and 0.003% sodium azide was prepared and combined with non-purified, fresh transcription at a ratio of 4 parts reaction mix to 1 part transcription. A feeding layer was prepared consisting of 0.3 mM each amino acid, 24 mM HEPES-KOH, pH 7.8, 100 mM potassium acetate, 2.5 mM magnesium acetate, 0.4 mM spermidine HCl, 4 mM DTT, 1.2 mM ATP, 0.25 mM GTP, 16 mM creatine phosphate, and 0.005% sodium azide, of which […] was added to wells of a U-bottom 96-well plate. 25 μL of the denser translation reaction mixture was carefully underlayed below the feeding layer, forming a bilayer. The plate was sealed and incubated at 22° C. for 18 h. The fully-diffused 150-μL bilayer reaction was then harvested and used for expression analysis by SDS-PAGE, and activity screening. […]"}, "[2]": {"assay": "Activity screening of cell-free translated PMT enzymes with feruloyl-CoA and monolignol mixture (LC-MS)", "assay_type": "biochemical", "conditions": "fed monolignols (H, G, S) and feruloyl-CoA, FIGS. 3B, 4B, 10", "protocol": "The active enzymes were produced using a wheat germ cell-free translation bilayer method previously reported (Makino, S., Beebe, E. T., Markley, J. L. and Fox, B. G. (2014) Cell-free protein synthesis for functional and structural studies. Methods in Molecular Biology, 1091, 161-178). Briefly, a translation reaction mixture consisting of 60 OD wheat germ extract (CellFree Sciences, Matsuyama, Japan), 0.04 mg/mL creatine kinase, 0.3 mM each amino acid, 12.6 mM HEPES-KOH, pH 7.8, 52.6 mM potassium acetate, 1.3 mM magnesium acetate, 0.2 mM spermidine HCl, 2.1 mM DTT, 0.6 mM ATP, 0.13 mM GTP, 8.4 mM creatine phosphate, and 0.003% sodium azide was prepared and combined with non-purified, fresh transcription at a ratio of 4 parts reaction mix to 1 part transcription. A feeding layer was prepared consisting of 0.3 mM each amino acid, 24 mM HEPES-KOH, pH 7.8, 100 mM potassium acetate, 2.5 mM magnesium acetate, 0.4 mM spermidine HCl, 4 mM DTT, 1.2 mM ATP, 0.25 mM GTP, 16 mM creatine phosphate, and 0.005% sodium azide, of which […] was added to wells of a U-bottom 96-well plate. 25 μL of the denser translation reaction mixture was carefully underlayed below the feeding layer, forming a bilayer. The plate was sealed and incubated at 22° C. for 18 h. The fully-diffused 150-μL bilayer reaction was then harvested and used for expression analysis by SDS-PAGE, and activity screening.\nThe enzyme mixture was screened for activity with p-coumaroyl-CoA (FIG. 2B) and feruloyl-CoA (FIG. 2C) and all three monolignols (FIG. 2A) (p-coumaryl, coniferyl, and sinapyl alcohol). Each enzyme was tested individually alongside positive and negative controls following the procedure previously reported (Withers, S., Lu, F., Kim, H., Zhu, Y., Ralph, J. and Wilkerson, C. G. (2012) Identification of a grass-specific enzyme that acylates monolignols with p-coumarate. Journal of Biological Chemistry, 287, 8347-8355). Briefly, the assay was initiated by adding 10 μL of wheat germ cell-free translation containing one of the PMT enzymes at a concentration of 1.5-2 μM to a reaction containing 50 mM sodium phosphate buffer, pH 6, 1 mM dithiothreitol (DTT), 1 mM CoA thioester, 1 mM monolignol mixture (each monolignol at 1 mM concentration), and deionized water in a final volume of 50 μL. After a 30-min incubation, the reaction was stopped by the addition of an equal volume 100 mM hydrochloric acid. Reaction products were solubilized by adjusting the solution to 50% methanol. An identical assay with no enzyme added was performed for every reaction. Samples were filtered through 0.2 μm filters prior to analysis by liquid chromatography-mass spectrometry (LC-MS). […]"}},
  "note": "Entries after “also recorded” stand apart in the source; their conditions may differ.",
  "data": [
    {"molecule": "SbPMT: Sorghum bicolor (sorghum) p-coumaroyl-CoA:monolignol transferase, amino acid sequence SEQ ID NO:4, Sb09g002910.1 (protein, Sorghum bicolor) MGTIDDTAGLFPVTRTNRSLVPPSSATPQETLRLSVIDRVAGLRHLVRSLHVFAGGENKKQAAPPAKSLREALGKALVDYYPFAGRFVEEDGEVRVACTGEGAWFVEAAAACSLEEVRHLDHPMLIPKEELLPEPAPGVNPLDMPLMMQVTEFTCGGFVVGLISVHTIADGLGAGQFINAVADYARGGATAGAVTRPRITPIWARDVIPDPPKMPAPPPRLDLLDLVYFTTDLSPDHIAKVKSSYLESTGQRCSAFDVCVARTWQARVRALRLPDAAAPVHVCFFANTRHLLPATAAAPASGFYGNCFYTVKATRPSGEVAAADIVDVVRAIRDAKARLAADFARWAAGGFDRDPYELTFTYDSLFVSDWTRLGFLEADYGWGTPTHVVPFSYHPFMAVAVIGAPPAPKPGARIMTMCVQEQHLPEFQEQMNQPCS", "values": [
      {"measurement": "p-coumaroyl-CoA:monolignol transferase activity (in words)", "setting": "[1]", "value": "active PMTs, coupling monolignols to p-coumaroyl-CoA; also recorded: found to produce monolignol p-coumarate conjugates"},
      {"measurement": "feruloyl-CoA monolignol transferase activity (in words)", "setting": "[2]", "value": "limited to no feruloyl-CoA monolignol transferase activity; also recorded: little to no activity"},
      {"measurement": "feruloyl-CoA monolignol transferase activity (in words)", "setting": "[2]; listed as SEQ ID NO:4", "value": "no relevant activity in generating monolignol ferulates"}
    ]},
    {"molecule": "PvPMT: Panicum virgatum (switchgrass) p-coumaroyl-CoA:monolignol transferase, amino acid sequence SEQ ID NO:2, Pavir.J00672.1 (protein, listed as Panicum virgatum) MGTIGFPVTRTSRSLVAPSSATPQETLHLSVIDRVAGLRHLVRSLHVFDGRRGEAAVRTPAETLRAALGKALVDYYPLAGRFVEEDGEVRVACTAGGAWFVEAAAACTLEEVKHLDHPMVIPKEDLLPEPAPDVNPLDMPLMMQVTEFACGGFVVGLISVHTIADGLGAGQFINAVADYARGLPRPRVLPVWARDVIPAPSRIVSPPPRFDLLDLRYFTVDLSPEHIAKVKSSFFEATGQRCSAFDVCVAKTWQSRVRALRLDGDDPARPIHVCFFANTRHLLPQLAPGFYGNCFYTVRATRPCGEVAAAGVVEVVRAIRDAKARLGADFARWAAGGFERDPYELTFSYDSLFVSDWTRLGFLEADYGWGAPAHVVPFSYHPFMAVAVIGAPPAPKPGARVMTMCVTEKHLPEFQEQMNAFAAGNHQ", "values": [
      {"measurement": "p-coumaroyl-CoA:monolignol transferase activity (in words)", "setting": "[1]", "value": "active PMTs, coupling monolignols to p-coumaroyl-CoA; also recorded: found to produce monolignol p-coumarate conjugates"},
      {"measurement": "feruloyl-CoA monolignol transferase activity (in words)", "setting": "[2]", "value": "limited to no feruloyl-CoA monolignol transferase activity; also recorded: little to no activity"},
      {"measurement": "feruloyl-CoA monolignol transferase activity (in words)", "setting": "[2]; listed as SEQ ID NO:2", "value": "no relevant activity in generating monolignol ferulates"}
    ]}
  ]
}
